B1: anti-GPC-3 IgG1 clone 1F1 (antibody, V domains shown)
VH: QVQLVQSGAEVKKPGASVKVSCKASGYTFTSYGISWVRQAPGQRLEWMGWINAGNGNTKYSQKFQGRVTITRDTSASTAYMELSSLRSEDTAVYYCATVVYWGQGTL
VL: EIVLTQSPLSLPVTPGEPASISCRSSQSLLHSNGYNYLDWYLQKPGQSPQILIYLGSHRASGVPDRFSGSASGTDFTLKISRVEAEDVGVYYCMQALQTPLTFGGGTK
notes: Tested as IgG1; also called monoclonal antibody 1F1
B2: anti-GPC-3 IgG1 clone 5C4 (antibody, V domains shown)
VH: QVQLQESGGGLVKPGGSLRLSCAASGFTFSSYSMNWVRQAPGKGLEWVAVISYDGSNKYYADSVKGRFTISRDNSKNTLYLQMNSLRTEDTAVYYCARGAGPFTGFNWFDPWGQGTL
VL: EIVLTQSPATLSVSPGERATLSCRASQSVDSYLAWYQQKPGQAPRLLIYSASTRATGIPARFSGTGSGTEFTLTISSLQSEDFAVYYCQQYKRWPTWTFGLGTR
notes: Tested as IgG1; also called monoclonal antibody 5C4
B3: humanized GC33 IgG1 (antibody, V domains shown)
VH: QVQLVESGAEVKKPGASVKVSCKASGYTFTDYEMHWVRQAPGQGLEWMGALDPKTGDTAYSQKFKGRVTITADESTSTAYMELSSLRSEDTAVYYCARFYSYTYWGQGTLVTVSS
VL: DVVMTQSPLSLPVTPGEPASISCRSSQSLVHSNGNTYLHWYLQKPGQSPQLLIYKVSNRFSGVPDRFSGSGSGTDFTLKISRVEAEDVGVYYCSQNTHVPPTFGQGTKLEIK
B4: anti-GPC-3 IgG1 clone 1D8 (antibody, V domains shown)
VH: QVQLVQSGAEVKKPGASVKVSCKASGYTFTSYGISWVRQAPGQGLEWMGWISAYNGNTNYAQKLQGRVTMTTDTSTSTAYMELRSLRSDDTAVYYCARDGGLIAAAFGYYYYGMDVWGQGTT
VL: EIVLTQSPGTLSLSPGERATLSCRASQSVSSYLAWYQQKPGQAPRLLIYGASSRATGIPDRFSGSGSGTDFTLTISRLEPEDFAVYYCQQYERPPTFGGGTK
notes: Tested as IgG1; also called monoclonal antibody 1D8
B5: anti-GPC-3 bi-specific T cell-engaging antibody clone 1C4 (bispecific antibody)
VH: QVQLVQSGGGLVKPGRSLRLSCTASGFTFGDYAMHWVRQAPGKGLEWVAVISYDGSNKYYADSVKGRFTISRDNSKNTLYLQMNSLRAEDTAVYYCARDYGDYYRPYGMDVWGQGTT
VL: DIQMTQSPSTLSASVGDRVTITCRASQSISKWLAWYQHKPGKAPKVLIYKASTLQSGVPSRFSGSGSGTEFTLTISSLQPEDFATYYCQQLNSYPLTFGGGTK
scFv: DVQLVQSGAEVKKPGASVKVSCKASGYTFTRYTMHWVRQAPGQGLEWIGYINPSRGYTNYADSVKGRFTITTDKSTSTAYMELSSLRSEDTATYYCARYYDDHYCLDYWGQGTTVTVSSGEGTSTGSGGSGGSGGADDIVLTQSPATLSLSPGERATLSCRASQSVSYMNWYQQKPGKAPKRWIYDTSKVASGVPARFSGSGSGTDYSLTINSLEAEDAATYYCQQWSSNPLTFGGGTKVEIK
notes: The Fab region of one arm of the IgG is replaced by the anti-CD3 scFv; knob-in-hole and LALA mutations in the Fc; also called 1C4 bi-specific
B6: anti-GPC-3 bi-specific T cell-engaging antibody clone 5C4 (bispecific antibody)
VH: B2 VH
VL: B2 VL
scFv: B5 scFv
notes: The Fab region of one arm of the IgG is replaced by the anti-CD3 scFv; knob-in-hole and LALA mutations in the Fc; also called 5C4 bi-specific
B7: anti-GPC-3 bi-specific T cell-engaging antibody clone 4H1 (bispecific antibody)
VH: EVQLVQSGGGVVQPGRSLRLSCAASGFTFSSYAMHWVRQAPGKGLEWVAVISYDGSNKYYADSVKGRFTISRDNSKNTLYLQMNSLRAEDTAVYYCARAPGLEDYWGQGTL
VL: DIQMTQSPSSLSASVGDRVTITCRASQSISSYLNWYQQKPGTAPKLLIYAASSSLQSGVPSRFSGSGSGTDFALTISSLQPEDFATYYCLQDYNYPLTFGGGTK
scFv: B5 scFv
notes: The Fab region of one arm of the IgG is replaced by the anti-CD3 scFv; knob-in-hole and LALA mutations in the Fc; also called 4H1 bi-specific
B8: anti-GPC-3 bi-specific T cell-engaging antibody clone 2B5 (bispecific antibody)
VH: QVQLQESGGGVVQPGRSLRLSCAASGFTFSSYAMHWVRQAPGKGLEWVAVISYDGSNKYYADSVKGRFTISRDNSKNTLYLQMNSLRAEDTAVYYCAKEGTYYYDSSGYWDYYYGMDVWGQGTT
VL: DVVMTQSPLSLPVTPGEPASISCRSSQSLLDSDGYNFLDWYVQKPGQSPQRLIYLGSIRASGVPDRFSGSGSGTDFTLKISRVEADDVGVYYCMQALQTPWTFGQGTK
scFv: B5 scFv
notes: The Fab region of one arm of the IgG is replaced by the anti-CD3 scFv; knob-in-hole and LALA mutations in the Fc; also called 2B5 bi-specific
B9: anti-GPC-3 bi-specific T cell-engaging antibody clone 1D2 (bispecific antibody)
VH: EVQLVQSGAEVKKPGSSVKVSCKASGGTFSSYAISWVRQAPGQGLEWMGGIIPIFGTANYAQKFQGRVTITADKSTSTAYMELSSLRSEDTAVYYCAREWQQQLVPLGYMDVWGKGTT
VL: ETTLTQSPGTLSLSPGERATLSCRASHSVSSNFLAWYQQKPGQAPRLLIYAASSRTTGVPDRFSGSGSGTDFTLTISRLEPEDSAVYYCQQYGYSPLYTFGQGTK
scFv: B5 scFv
notes: The Fab region of one arm of the IgG is replaced by the anti-CD3 scFv; knob-in-hole and LALA mutations in the Fc; also called 1D2 bi-specific
B10: anti-GPC-3 IgG1 clone 1H1 (antibody, V domains shown)
VH: QVQLQESGAGLLRPSETLSLTCAVYGGSFSGYYWSWIRQPPGKGLEWLGEISHSGSTNYNPSLKSRVTISVDTSKNQFSLKLSSVTAADAAVYYCARWVWSGYYNGEGYFDLWGRGTL
VL: ETTLTQSPGTLSLSPGERATLSCRASQSVSSSYLAWYQQKPGQAPRLLIYGASSRATGIPDRFSGRGSGTDFTLTITRLEPEDFAVYYCQYYGSSPRTFGQGTK
notes: Tested as IgG1; also called monoclonal antibody 1H1

Assays:
[1] = target: T1, recombinant human GPC-3 protein (human, UniProt P51654 25-559, limits assumed); test: SPR, Biacore T200
T1 construct: also called glypican-3; recombinant GPC-3 protein
Description: Affinity of 24 anti-GPC-3 IgG₁ antibodies was measured via Surface Plasmon Resonance (SPR) analysis using Biacore™ T200 system and shown in Table E3 (below).

[2] = target: T1, recombinant human GPC-3 protein; test: binding ELISA with biotin-hGPC-3, EC50 calculated from the curves of FIG. 1A to 1C
[3] = target: T2, human GPC-3 on the surface of HepG2 and Hep3B cells (human, UniProt P51654 25-554); test: flow cytometry on Hep3B (GPC-3 Medium) cells, MFI against antibody (pM)
T2 construct: whole, on cells; Endogenous GPC-3 of human hepatoma cell lines; also called GPC-3 expressing HepG2 cells; GPC-3^High HepG2
Description: (§1) The ability of anti-GPC-3 antibodies to specifically recognize and bind GPC-3 on the surface of cells was measured using HepG2 (GPC-3^High), Hep3B (GPC-3^Medium) and SK-Hep1 (GPC-3^Negative) cells.
(§2) Briefly, HepG2 (GPC-3^High), Hep3B (GPC-3^Medium) and SK-Hep1 (GPC-3^Negative) cells were seeded in cell suspension at 50000 per well in 96-well round-bottom plate before incubation with different concentrations of anti-GPC-3 antibodies. Binding was measured by flow cytometry using a secondary labelled antibody.

[4] = target: T2, human GPC-3 on the surface of HepG2 and …; test: flow cytometry on HepG2 (GPC-3 High) cells, MFI against antibody (pM)
Description: as §1, §2

[5] = target: T1, recombinant human GPC-3 protein; test: binding ELISA, absorbance 450nm-570nm against Biotin-hGPC-3 (nM), batch of FIG. 1B
[6] = target: T1, recombinant human GPC-3 protein; test: binding ELISA with biotin-hGPC-3, EC50 calculated from the curves of FIG. 1A to 1C; footnote: * Average value from 3 batches
[7] = target: T1, recombinant human GPC-3 protein; test: binding ELISA, absorbance 450nm-570nm against Biotin-hGPC-3 (nM), batch of FIG. 1A
[8] = target: T1, recombinant human GPC-3 protein; test: binding ELISA, absorbance 450nm-570nm against Biotin-hGPC-3 (nM), batch of FIG. 1C
[9] = target: T2, human GPC-3 on the surface of HepG2 and …; test: flow cytometry on HepG2 (GPC-3 High) cells, MFI against antibody (pM); remark: listed apart in the source
[10] = target: T3, recombinant mouse GPC-3 protein (mouse, UniProt Q8CFZ4 25-558, limits assumed, biotinylated (sites not given)); test: cross-reactivity binding ELISA with biotinylated recombinant GPC-3, absorbance 450nm-570nm
T3 construct: Biotinylated for the cross-reactivity ELISA; also called mouse homolog of GPC-3 protein

[11] = target: T4, mouse GPC-3 on the surface of transduced cells (Hepa1-6-mGPC-3, MC38-mGPC-3) (mouse, UniProt Q8CFZ4 25-553); test: flow cytometry histograms, 20 nM antibody, Hepa1-6-mGPC-3 against parental Hepa1-6 cells
T4 construct: whole, on cells

[12] = target: T5, human CD3 on human T cells (human, UniProt P07766 23-207); test: flow cytometry on human T cells (CD3 Positive), % positive cells
T5 construct: whole, on cells; CD3 is a complex of several chains on T cells; also called CD3^Positive human T cells
Description: (§3) The ability of these anti-GPC-3 bi-specific T cell-engaging antibodies to specifically recognize and bind to both GPC-3 and human CD3 molecules on cell surface was measured using HepG2 (GPC-3^Positive), SK-Hep1 (GPC-3^Negative), and human T cells (CD3^Positive) cells.
(§4) Briefly, HepG2 (GPC-3^Positive), SK-Hep1 (GPC-3^Negative) and human T cells (CD3^Positive) were seeded in cell suspension at 100000 per well in 96-well round-bottom plate prior to incubation with different concentrations of anti-GPC-3 bi-specific T cell-engaging antibodies. Binding was measured by flow cytometry using a secondary labelled antibody. In this assay, all 5 anti-GPC-3 bi-specific T-cell engaging antibodies bound strongly to the GPC-3 expressing cell HepG2 (FIG. 8B) as well as human T cells expressing CD3 (FIG. 8D).

[13] = target: T2, human GPC-3 on the surface of HepG2 and …; test: flow cytometry on HepG2 (GPC-3 Positive) cells, mean-APC
Description: as §3, §4

[14] = target: T2, human GPC-3 on the surface of HepG2 and …; test: flow cytometry on HepG2 (GPC-3 Positive) cells, % positive cells
Description: as §3, §4

T3 sequence (Q8CFZ4 25-558 limits assumed): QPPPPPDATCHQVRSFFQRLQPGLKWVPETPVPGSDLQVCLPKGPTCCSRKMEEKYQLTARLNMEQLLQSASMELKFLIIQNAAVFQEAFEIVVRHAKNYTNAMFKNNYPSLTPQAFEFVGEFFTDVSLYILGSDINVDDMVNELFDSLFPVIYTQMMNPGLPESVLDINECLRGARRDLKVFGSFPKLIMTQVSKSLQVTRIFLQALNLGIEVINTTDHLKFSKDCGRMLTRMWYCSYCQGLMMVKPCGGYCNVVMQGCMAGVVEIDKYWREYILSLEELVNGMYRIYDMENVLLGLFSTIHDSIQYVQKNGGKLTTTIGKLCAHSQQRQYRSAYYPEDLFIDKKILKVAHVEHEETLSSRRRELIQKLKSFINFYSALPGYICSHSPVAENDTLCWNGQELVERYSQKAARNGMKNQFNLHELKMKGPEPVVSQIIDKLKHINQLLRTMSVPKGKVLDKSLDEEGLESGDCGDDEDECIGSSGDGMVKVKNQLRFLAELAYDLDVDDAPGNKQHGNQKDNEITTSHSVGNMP
T4 sequence (Q8CFZ4 25-553 limits assumed): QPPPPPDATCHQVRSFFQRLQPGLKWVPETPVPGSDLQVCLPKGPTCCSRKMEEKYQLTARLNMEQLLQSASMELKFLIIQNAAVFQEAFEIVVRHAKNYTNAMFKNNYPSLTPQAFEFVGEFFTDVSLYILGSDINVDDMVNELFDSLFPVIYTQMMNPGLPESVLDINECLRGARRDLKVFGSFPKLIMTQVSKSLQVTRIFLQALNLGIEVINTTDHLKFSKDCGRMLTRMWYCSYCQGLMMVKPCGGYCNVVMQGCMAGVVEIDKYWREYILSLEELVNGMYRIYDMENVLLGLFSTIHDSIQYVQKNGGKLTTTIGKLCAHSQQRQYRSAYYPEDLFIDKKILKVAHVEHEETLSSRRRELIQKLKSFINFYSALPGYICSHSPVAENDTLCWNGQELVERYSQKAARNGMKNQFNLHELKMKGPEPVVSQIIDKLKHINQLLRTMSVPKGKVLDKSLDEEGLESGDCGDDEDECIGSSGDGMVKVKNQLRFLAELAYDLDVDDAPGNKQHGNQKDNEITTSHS

| Binder | Kd [1] [nM] | koff [1] [s⁻¹] | kon [1] [M⁻¹ s⁻¹] | EC50 [2] [nM] | EC50 (read off the curve) [12] [nM] | EC50 (read off the curve) [14] [nM] | further results |
| --- | --- | --- | --- | --- | --- | --- | --- |
| B1 | 13.8 | 0.00552 | 399000 | 10.6 | – | – | – |
| B2 | 9.02 | 0.00161 | 179000 | 0.348 | – | – | EC50 (read off the curve) [3]: ~0.04 nM; EC50 (read off the curve) [4]: ~0.1 nM |
| B3 | – | – | – | – | – | – | EC50 (read off the curve) [5]: ~0.9 nM; EC50 [6]: 0.803 nM; EC50 (read off the curve) [7]: ~0.4 nM; EC50 (read off the curve) [8]: ~1 nM; EC50 (read off the curve) [9]: ~0.8 nM; EC50 (read off the curve) [4]: ~0.7 nM |
| B4 | 13.7 | 0.0053 | 388000 | 9.01 | – | – | binding result [10]: no binding; binding result [11]: no binding (tested: 20 nM) |
| B5 | – | – | – | – | ~200 | ~10 | EC50 (read off the curve) [13]: ~700 nM |
| B6 | – | – | – | – | ~100 | ~20 | EC50 (read off the curve) [13]: ~800 nM |
| B7 | – | – | – | – | ~300 | ~100 | – |
| B8 | – | – | – | – | ~400 | ~100 | – |
| B9 | – | – | – | – | ~300 | ~70 | – |
| B10 | 33.9 | 0.00596 | 176000 | 5.42 | – | – | – |
